Assay results from US20220073608A1.

Key:
[1] = target: hSEMA4D ECD-His (His-tagged human SEMA4D protein extracellular domain, Met22-Arg734) (human) (UniProt Q92854); test: ELISA, coated hSEMA4D ECD-His; Ab 2.67 nM
[2] = target: hSEMA4D ECD-His (His-tagged human SEMA4D protein extracellular domain, Met22-Arg734) (human) (UniProt Q92854); test: ELISA, coated hSEMA4D ECD-His; Ab 0.0427 nM
[3] = target: hSEMA4D ECD-His (His-tagged human SEMA4D protein extracellular domain, Met22-Arg734) (human) (UniProt Q92854); test: ELISA, coated hSEMA4D ECD-His; Ab 0.533 nM
[4] = target: hSEMA4D ECD-His (His-tagged human SEMA4D protein extracellular domain, Met22-Arg734) (human) (UniProt Q92854); test: ELISA, coated hSEMA4D ECD-His; Ab 0.00085 nM
[5] = target: hSEMA4D ECD-His (His-tagged human SEMA4D protein extracellular domain, Met22-Arg734) (human) (UniProt Q92854); test: ELISA, coated hSEMA4D ECD-His; Ab 0.0213 nM
[6] = target: hSEMA4D ECD-His (His-tagged human SEMA4D protein extracellular domain, Met22-Arg734) (human) (UniProt Q92854); test: ELISA, coated hSEMA4D ECD-His; Ab 13.3 nM
[7] = target: hSEMA4D ECD-His (His-tagged human SEMA4D protein extracellular domain, Met22-Arg734) (human) (UniProt Q92854); test: ELISA, coated hSEMA4D ECD-His; Ab 0.107 nM
[8] = target: hSEMA4D ECD-His (His-tagged human SEMA4D protein extracellular domain, Met22-Arg734) (human) (UniProt Q92854); test: ELISA, coated hSEMA4D ECD-His; Ab 1.33 nM
[9] = target: hSEMA4D ECD-His (His-tagged human SEMA4D protein extracellular domain, Met22-Arg734) (human) (UniProt Q92854); test: ELISA, coated hSEMA4D ECD-His; Ab 0.00427 nM
[10] = target: monkey SEMA4D, full length, on CHO-K1 cells (CHO-K1 cSEMA4D) (monkey); test: FACS, CHO-K1 cSEMA4D cells; Ab 66.7 nM
[11] = target: hSEMA4D ECD-His (His-tagged human SEMA4D protein extracellular domain, Met22-Arg734) (human) (UniProt Q92854); test: ELISA, coated hSEMA4D ECD-His; Ab 0.000085 nM
[12] = target: T1, human SEMA4D, full length, on CHO-K1 cells (CHO-K1 hSEMA4D) (human) (UniProt Q92854); test: FACS, CHO-K1 hSEMA4D cells; Ab 66.7 nM
T1 sequence (looked up): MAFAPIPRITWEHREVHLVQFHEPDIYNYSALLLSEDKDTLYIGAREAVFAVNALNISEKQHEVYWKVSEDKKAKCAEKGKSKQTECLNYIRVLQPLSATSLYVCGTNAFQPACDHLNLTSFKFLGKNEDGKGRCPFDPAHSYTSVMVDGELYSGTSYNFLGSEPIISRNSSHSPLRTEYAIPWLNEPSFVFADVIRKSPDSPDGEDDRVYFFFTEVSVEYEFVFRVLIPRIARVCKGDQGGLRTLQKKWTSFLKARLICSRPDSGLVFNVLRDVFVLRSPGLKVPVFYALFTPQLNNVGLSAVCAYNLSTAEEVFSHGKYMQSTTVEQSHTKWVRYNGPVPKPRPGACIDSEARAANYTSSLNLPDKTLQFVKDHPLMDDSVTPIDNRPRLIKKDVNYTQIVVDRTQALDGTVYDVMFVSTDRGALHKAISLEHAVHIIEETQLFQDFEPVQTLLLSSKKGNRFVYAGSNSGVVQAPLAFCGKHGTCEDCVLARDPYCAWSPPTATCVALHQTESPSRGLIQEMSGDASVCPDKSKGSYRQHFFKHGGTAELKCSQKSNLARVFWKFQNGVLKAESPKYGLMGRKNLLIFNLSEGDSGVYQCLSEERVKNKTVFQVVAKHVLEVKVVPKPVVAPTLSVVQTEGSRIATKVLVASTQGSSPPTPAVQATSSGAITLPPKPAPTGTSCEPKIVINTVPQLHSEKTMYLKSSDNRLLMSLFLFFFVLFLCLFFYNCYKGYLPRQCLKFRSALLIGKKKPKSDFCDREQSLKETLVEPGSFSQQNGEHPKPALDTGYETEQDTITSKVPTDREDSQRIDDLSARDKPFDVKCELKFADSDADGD

[13] = target: hSEMA4D ECD-His (His-tagged human SEMA4D protein extracellular domain, Met22-Arg734) (human) (UniProt Q92854); test: ELISA, coated hSEMA4D ECD-His; Ab 0.267 nM
[14] = target: hSEMA4D ECD-His (His-tagged human SEMA4D protein extracellular domain, Met22-Arg734) (human) (UniProt Q92854); test: ELISA, coated hSEMA4D ECD-His; Ab 0.0533 nM
[15] = target: hSEMA4D ECD-His (His-tagged human SEMA4D protein extracellular domain, Met22-Arg734) (human) (UniProt Q92854); test: ELISA, coated hSEMA4D ECD-His; Ab 0.00213 nM
[16] = target: hSEMA4D ECD-His (His-tagged human SEMA4D protein extracellular domain, Met22-Arg734) (human) (UniProt Q92854); test: ELISA, coated hSEMA4D ECD-His; Ab 0.0107 nM

OD450 nm [1]	OD450 nm [2]	OD450 nm [3]	OD450 nm [4]	OD450 nm [5]	OD450 nm [6]	OD450 nm [7]	OD450 nm [8]	OD450 nm [9]	MFI [10]	OD450 nm [11]	MFI [12]	OD450 nm [13]	OD450 nm [14]	OD450 nm [15]	OD450 nm [16]	Substance
0.074	0.0754	0.0748	0.0781	0.0714	0.0766	0.0717	–	–	–	–	–	–	–	–	–	Human IgG control (antibody)
–	–	–	–	–	–	–	0.264	0.0789	339	0.0686	214	0.0791	0.0805	0.0718	0.0814	Mouse IgG control (antibody)
